pKd: −log10 of the molar value.
Assays:
[1] = target: human complement C7 (human) (UniProt P10643); assay: SPR; Biacore 3000; ten micrograms of human C7, C9 or plasminogen conjugated on a CM5 chip (2823, 2034 and 2106 RU); 0.0625 to 1 uM histidine tagged CspA protein flowed over at 10 uL/min, 25°C; 1:1 Langmuir model
[2] = target: human complement C9 (human) (UniProt P02748); assay: as above
[3] = target: human plasminogen (human); assay: as above
[4] = target: factor H (FH) from human, purified (human) (UniProt P08603); assay: SPR; Biacore 3000; ten micrograms of FH from human, mouse or horse conjugated to a CM5 chip; CspA proteins injected at 10 μL/min, 25°C; 1:1 Langmuir model
[5] = target: factor H (FH) from mouse, purified (mouse (Mus musculus)) (UniProt P06909); assay: as above
[6] = target: factor H (FH) from human, purified (human) (UniProt P08603); assay: ELISA; one microgram of FH coated on microtiter wells; 0.03125 to 2 μM histidine-tagged CspA proteins or DbpA added; detected by mouse anti-histidine tag; KD from a one-site fit of OD405
[7] = target: factor H (FH) from mouse, purified (mouse (Mus musculus)) (UniProt P06909); assay: as above
[8] = target: factor H (FH) from horse (horse); assay: SPR; Biacore 3000; ten micrograms of FH from human, mouse or horse conjugated to a CM5 chip; CspA proteins injected at 10 μL/min, 25°C; 1:1 Langmuir model
[9] = target: factor H (FH) from Coturnix quail (Coturnix coturnix quail); assay: ELISA; one microgram of FH coated on microtiter wells; 0.03125 to 2 μM histidine-tagged CspA proteins or DbpA added; detected by mouse anti-histidine tag; KD from a one-site fit of OD405
[10] = target: factor H (FH) from horse (horse); assay: as above

factor H (FH) from mouse, purified (mouse (Mus musculus)), sequence (P06909 19-1234): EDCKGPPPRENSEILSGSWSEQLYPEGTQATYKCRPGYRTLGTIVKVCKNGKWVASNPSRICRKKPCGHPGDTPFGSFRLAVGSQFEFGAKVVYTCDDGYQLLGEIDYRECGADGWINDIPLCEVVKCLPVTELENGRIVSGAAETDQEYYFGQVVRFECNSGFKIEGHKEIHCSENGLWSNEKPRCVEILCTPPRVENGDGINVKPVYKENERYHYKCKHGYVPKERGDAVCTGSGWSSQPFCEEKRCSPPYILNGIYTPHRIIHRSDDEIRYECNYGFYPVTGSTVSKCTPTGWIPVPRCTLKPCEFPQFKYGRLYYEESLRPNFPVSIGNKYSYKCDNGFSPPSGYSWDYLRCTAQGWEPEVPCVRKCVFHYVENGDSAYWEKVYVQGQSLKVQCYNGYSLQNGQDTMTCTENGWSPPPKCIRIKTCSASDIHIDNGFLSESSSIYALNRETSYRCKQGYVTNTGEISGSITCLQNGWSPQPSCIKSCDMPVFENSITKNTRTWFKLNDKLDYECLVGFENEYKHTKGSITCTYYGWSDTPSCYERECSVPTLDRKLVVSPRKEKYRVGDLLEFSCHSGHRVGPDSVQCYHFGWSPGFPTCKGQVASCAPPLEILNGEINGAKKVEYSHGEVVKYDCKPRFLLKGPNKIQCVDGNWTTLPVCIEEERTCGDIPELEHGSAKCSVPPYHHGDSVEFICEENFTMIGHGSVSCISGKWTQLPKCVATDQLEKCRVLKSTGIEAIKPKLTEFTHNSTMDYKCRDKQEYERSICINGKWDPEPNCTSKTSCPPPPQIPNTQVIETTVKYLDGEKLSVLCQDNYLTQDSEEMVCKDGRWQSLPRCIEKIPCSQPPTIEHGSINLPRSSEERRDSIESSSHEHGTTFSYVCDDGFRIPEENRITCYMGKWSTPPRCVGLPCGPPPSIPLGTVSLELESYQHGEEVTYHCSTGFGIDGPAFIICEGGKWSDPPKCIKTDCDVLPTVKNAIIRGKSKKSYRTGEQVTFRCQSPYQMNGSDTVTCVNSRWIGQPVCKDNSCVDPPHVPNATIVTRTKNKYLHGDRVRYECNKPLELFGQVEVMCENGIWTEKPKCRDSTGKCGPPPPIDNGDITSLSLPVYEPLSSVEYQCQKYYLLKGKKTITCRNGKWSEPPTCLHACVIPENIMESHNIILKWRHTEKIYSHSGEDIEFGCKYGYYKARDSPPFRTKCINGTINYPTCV
factor H (FH) from human, purified (human), sequence (P08603 19-1231): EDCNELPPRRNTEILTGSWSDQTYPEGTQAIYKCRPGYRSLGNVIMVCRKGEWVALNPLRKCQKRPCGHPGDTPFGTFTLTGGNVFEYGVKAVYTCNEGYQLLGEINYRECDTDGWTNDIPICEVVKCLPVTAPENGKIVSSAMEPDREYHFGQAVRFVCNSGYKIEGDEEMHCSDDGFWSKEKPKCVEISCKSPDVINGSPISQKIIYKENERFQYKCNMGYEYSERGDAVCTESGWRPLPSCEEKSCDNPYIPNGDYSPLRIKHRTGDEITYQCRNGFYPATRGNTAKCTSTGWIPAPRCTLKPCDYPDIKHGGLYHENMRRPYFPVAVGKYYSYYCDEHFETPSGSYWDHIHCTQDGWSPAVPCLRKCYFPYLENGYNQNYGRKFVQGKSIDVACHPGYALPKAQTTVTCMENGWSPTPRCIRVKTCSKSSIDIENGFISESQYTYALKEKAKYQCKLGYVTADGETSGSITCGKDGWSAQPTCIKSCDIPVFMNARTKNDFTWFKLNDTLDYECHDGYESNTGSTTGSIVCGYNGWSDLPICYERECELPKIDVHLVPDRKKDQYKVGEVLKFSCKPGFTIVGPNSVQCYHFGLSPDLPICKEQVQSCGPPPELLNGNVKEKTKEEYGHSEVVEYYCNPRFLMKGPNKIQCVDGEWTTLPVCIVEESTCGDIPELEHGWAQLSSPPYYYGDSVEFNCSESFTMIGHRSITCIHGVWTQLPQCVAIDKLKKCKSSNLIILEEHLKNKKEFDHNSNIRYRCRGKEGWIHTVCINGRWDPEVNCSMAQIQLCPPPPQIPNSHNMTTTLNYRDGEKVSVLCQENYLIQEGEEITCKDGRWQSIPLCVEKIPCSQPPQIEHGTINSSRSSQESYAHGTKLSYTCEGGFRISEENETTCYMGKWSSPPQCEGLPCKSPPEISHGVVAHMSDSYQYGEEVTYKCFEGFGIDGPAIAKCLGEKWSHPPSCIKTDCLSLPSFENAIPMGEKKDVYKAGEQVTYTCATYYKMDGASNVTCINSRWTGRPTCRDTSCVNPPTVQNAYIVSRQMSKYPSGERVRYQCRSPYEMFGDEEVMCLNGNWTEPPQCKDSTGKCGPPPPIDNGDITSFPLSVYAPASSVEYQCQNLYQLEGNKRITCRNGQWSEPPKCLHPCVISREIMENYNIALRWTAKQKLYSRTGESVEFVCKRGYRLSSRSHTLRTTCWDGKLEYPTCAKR
human complement C7 (human), sequence (P10643 23-843): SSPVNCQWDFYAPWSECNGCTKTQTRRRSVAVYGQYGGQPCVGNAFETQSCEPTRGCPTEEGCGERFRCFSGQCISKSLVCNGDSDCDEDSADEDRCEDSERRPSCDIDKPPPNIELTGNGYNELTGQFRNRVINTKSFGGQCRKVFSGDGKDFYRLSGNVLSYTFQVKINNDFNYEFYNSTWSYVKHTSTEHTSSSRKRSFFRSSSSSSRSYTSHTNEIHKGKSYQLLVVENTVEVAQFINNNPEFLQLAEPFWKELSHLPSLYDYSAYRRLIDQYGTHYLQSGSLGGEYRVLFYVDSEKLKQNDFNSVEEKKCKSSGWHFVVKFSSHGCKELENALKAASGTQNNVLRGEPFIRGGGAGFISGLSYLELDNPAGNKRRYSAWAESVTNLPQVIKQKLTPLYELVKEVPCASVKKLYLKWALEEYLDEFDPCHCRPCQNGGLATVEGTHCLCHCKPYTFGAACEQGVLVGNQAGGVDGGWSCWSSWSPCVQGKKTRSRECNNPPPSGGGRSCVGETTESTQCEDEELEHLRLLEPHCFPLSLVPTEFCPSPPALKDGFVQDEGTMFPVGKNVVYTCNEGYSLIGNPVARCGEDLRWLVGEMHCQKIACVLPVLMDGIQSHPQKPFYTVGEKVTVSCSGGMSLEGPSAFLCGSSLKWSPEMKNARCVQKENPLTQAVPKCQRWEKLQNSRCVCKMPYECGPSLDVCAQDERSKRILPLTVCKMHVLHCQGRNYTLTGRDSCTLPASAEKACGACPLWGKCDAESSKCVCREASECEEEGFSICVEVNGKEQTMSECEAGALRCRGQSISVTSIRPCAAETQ
human complement C9 (human), sequence (P02748 22-559): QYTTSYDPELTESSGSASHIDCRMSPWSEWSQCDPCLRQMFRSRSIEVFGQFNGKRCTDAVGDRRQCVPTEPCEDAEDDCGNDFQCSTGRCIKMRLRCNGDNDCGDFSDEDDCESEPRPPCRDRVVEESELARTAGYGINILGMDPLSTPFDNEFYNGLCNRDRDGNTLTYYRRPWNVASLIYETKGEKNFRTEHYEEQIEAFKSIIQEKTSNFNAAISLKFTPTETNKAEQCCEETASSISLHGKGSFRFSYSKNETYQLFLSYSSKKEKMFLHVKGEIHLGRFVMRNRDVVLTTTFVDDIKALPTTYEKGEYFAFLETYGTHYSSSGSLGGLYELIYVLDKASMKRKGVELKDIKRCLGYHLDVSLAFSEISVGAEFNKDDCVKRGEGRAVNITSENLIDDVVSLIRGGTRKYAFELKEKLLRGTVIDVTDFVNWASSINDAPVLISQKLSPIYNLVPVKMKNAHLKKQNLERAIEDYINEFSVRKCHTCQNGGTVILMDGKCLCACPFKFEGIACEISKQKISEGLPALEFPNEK

Row | Substance | pKd [1] | koff [1] | kon [1] | pKd [2] | koff [2] | kon [2] | pKd [3] | koff [3] | kon [3] | pKd [4] | koff [4] | kon [4] | pKd [5] | koff [5] | kon [5] | pKd [6] | pKd [7] | pKd [9] | other results
1 | CspA (Bba68) from B. burgdorferi strain B31, histidine tagged, residue 26 to 252 (domain or fragment) | 5.28 | 0.45 s⁻¹ | 94000 M⁻¹ s⁻¹ | 5.26 | 0.32 s⁻¹ | 60000 M⁻¹ s⁻¹ | 5.20 | 0.26 s⁻¹ | 43000 M⁻¹ s⁻¹ |  |  |  |  |  |  |  |  |  | 
2 | CspA (Bba68) from B. burgdorferi strain B31, histidine tagged, residue 26 to 252 with leucine-246 replaced by aspartate (domain or fragment) | 5.46 | 0.38 s⁻¹ | 143000 M⁻¹ s⁻¹ | 5.27 | 0.36 s⁻¹ | 70000 M⁻¹ s⁻¹ | 5.19 | 0.29 s⁻¹ | 49000 M⁻¹ s⁻¹ |  |  |  |  |  |  |  |  |  | 
3 | recombinant histidine-tagged CspA of B. afzelii strain PKo (CspAPKo) (from UniProt G0IU82 1-241) (natural protein) |  |  |  |  |  |  |  |  |  | 6.96 | 0.014 s⁻¹ | 152000 M⁻¹ s⁻¹ | 6.34 | 0.048 s⁻¹ | 115000 M⁻¹ s⁻¹ | 6.80 | 6.12 |  | 
4 | recombinant histidine-tagged CspA of B. burgdorferi strain B31 (CspAB31) (natural protein) |  |  |  |  |  |  |  |  |  | 6.70 | 0.017 s⁻¹ | 114000 M⁻¹ s⁻¹ | 7.15 | 0.012 s⁻¹ | 188000 M⁻¹ s⁻¹ | 6.39 | 6.64 | 6.04 | pKd [8]: 6.26; koff [8]: 0.014 s⁻¹; kon [8]: 30000 M⁻¹ s⁻¹; pKd [10]: 6.06
5 | recombinant histidine-tagged CspA of B. garinii strain ZQ1 (CspAZQ1) (natural protein) |  |  |  |  |  |  |  |  |  |  |  |  |  |  |  |  |  | 6.44 | 
